This series deals with the molecule itself. In words: SEC; purified TtHPF without ribosome on Superdex200 Increase 10/300 in buffer F (20 mM Hepes/KOH pH 7.5, 100 mM KCl, 10% v/v glycerol, 1 mM DTT); elution volume compared to standard proteins.

B1: Thermus thermophilus hibernation-promoting factor (TtHPF) (natural protein, UniProt Q5SIS0 1-186, looked up)
chain: MNIYKLIGRNLEITDAIRDYVEKKLARLDRYQDGELMAKVVLSLAGSPHVEKKARAEIQVDLPGGLVRVEEEDADLYAAIDRAVDRLETQVKRFRERRYVGKRHSYQGPPPPEVRDLEALRKPEEEEGPRIVRVKRFEMKPMDPEEAAFQMEALGHSFFVFRNAKTDEINVIYRRKDGNYGLIEPA
notes: Hibernation-promoting factor TtHPF of Thermus thermophilus, UniProt Q5SIS0; gene amplified from genomic DNA with primers from the start codon to the stop codon; residues 2-122 (NTD and linker) and 129-185 (CTD) were modelled in the cryo-EM maps; The forward primer encodes a TEV site (ENLYFQG) directly before Met1, so a Gly probably remains at the N-terminus after TEV cleavage (surmised); The …
In the case of B1, the stoichiometry N (as a rule, the number of molecules, sites or subunits per partner or assembly) is 2.

(Values after publication PMC6177447, “Cryo-EM structure of the hibernating Thermus thermophilus 100S ribosome reveals a protein-mediated dimerization mechanism” (Nature Communications, 2018).)
